For the data set the following is noted: Homo sapiens, pH 7.4, Potassium phosphate buffer, NaCl, transition: 2, reversible: yes, structure 1TEN; for Tm / change of melting temperature, mutant - wild type (higher = more stable): Thermal, DSC.

As usually defined, the Tm is the temperature at the midpoint of the melting transition. In the case of Tenascin, P24821 A885V, the Tm was found to be 59.8 °C and the “change of melting temperature, mutant - wild type (higher = more stable)” value (“change of melting temperature, mutant” below) amounted to 1.1 °C.
As to Tenascin, P24821 D850K, the Tm turned out to be 63.7 °C and the “change of melting temperature, mutant” value was determined as 5 °C.
As to Tenascin, P24821 E887I, the Tm came to 69.9 °C and the “change of melting temperature, mutant” value was found to be 11.2 °C.
As for Tenascin, P24821 E887I T890K, the Tm worked out at 74.9 °C and the “change of melting temperature, mutant” value came out at 16.2 °C.
Tenascin, P24821 E887I T890K D850K: the Tm was 80.5 °C and the “change of melting temperature, mutant” value was determined as 21.8 °C.
For “Tenascin, P24821 E887I T890K D850K I833F”, the Tm worked out at 82.6 °C and the “change of melting temperature, mutant” value stood at 23.9 °C.
Taken in the same sequence, the figures for Tenascin, P24821 I833F were 61 °C and 2.3 °C.
As for Tenascin, P24821 L820K, the midpoint of thermal melting (Tm) stood at 56.7 °C and the “change of melting temperature, mutant” value was -2 °C.
In the case of Tenascin, P24821 Q808K, the Tm came to 59.9 °C and the “change of melting temperature, mutant” value turned out to be 1.2 °C.
“Tenascin, P24821 T888C E870C I833C S875C”: the Tm stood at 80.6 °C. In addition, for the setting “23 °C, GdnSCN, fluorescence”, the denaturant m value was 4.17 kcal/mol/M, the “denaturant midpoint (higher = more stable)” value turned out to be 1.79 M and the unfolding free energy was determined as 7.44 kcal/mol.
Tenascin, P24821 T890K: the Tm is 63.9 °C and the “change of melting temperature, mutant” value worked out at 5.2 °C.
With Tenascin, P24821 V811C I821C, the melting temperature (Tm) amounted to 50.6 °C.

The record behind these values is FireProtDB (doi:10.1093/protein/gzu024).
